From the DeepSol protein solubility set

Experiment: soluble on expression in E. coli; label from the status in PepcDB or PDB records

With “MTIKEMPQPKTFGELKNLPLLNTDKPVQALMKIADELGEIFKFEAPGRVTRYLSSQRLIKEACDESRFDKNLSQALKFVRDFAGDGLFTSWTHEKNWKKAHNILLPSFSQQAMKGYHAMMVDIAVQLVQKWERLNADEHIEVPEDMTRLTLDTIGLCGFNYRFNSFYRDQPHPFITSMVRALDEAMNKLQRANPDDPAYDENKRQFQEDIKVMNDLVDKIIADRKASGEQSDDLLTHMLNGKDPETGEPLDDENIRYQIITFLIAGHETTSGLLSFALYFLVKNPHVLQKAAEEAARVLVDPVPSYKQVKQLKYVGMVLNEALRLWPTAPAFSLYAKEDTVLGGEYPLEKGDELMVLIPQLHRDKTIWGDDVEEFRPERFENPSAIPQHAFKPFGNGQRACPGQQFALHEATLVLGMMLKHFDFEDHTNYELDIKETLTLKPEGFVVKAKSKKIPLGGIPSPSTEQSAKKVRKKAENAHNTP” the “soluble on expression in E. coli” value was “soluble”.
In the case of “MSCINLPTVLPGSPSKTRGQIQVILGPMFSGKSTELMRRVRRFQIAQYKCLVIKYAKDTRYSSSFCTHDRNTMEALPACLLRDVAQEALGVAVIGIDEGQFFPDIMEFCEAMANAGKTVIVAALDGTFQRKPFGAILNLVPLAESVVKLTAVCMECFREAAYTKRLGTEKEVEVIGGADKYHSVCRLCYFKKASGQPAGPDNKENCPVPGKPGEAVAARKLFAPQQILQCSPAN”, the “soluble on expression in E. coli” value is reported as “soluble”.
For “MAHHHHHHMCPPKNENERGTEGQPAKNTESADTLKRKLSELYAEEGCQYGENGQPEDTSHLVSSGSAGKKRETATEKRNPEEVREKENAHEKKEDNEVDQNGQTSTSKTNTKKHRSSTDEPPNRRKKKKRKKKFNDNGEVTKPSKQMIRINYLLQASFLMNELNPNISREYIKTMRKLSNKFLIKHDKKFKKLFCKKCNSVLIPSATCKVSVNPLNLRKKKKNKNEEVSSNLNGKLRDEFLVSYRCNYCQHDTKFVYENGLTAPRANGTEAV”, the “soluble on expression in E. coli” value was “soluble”.
With “APEWTEEDLSQLTRSMVKFPGGTPGRWEKIAHELGRSVTDVTTKAKQLKDSVTCSPGMV” the “soluble on expression in E. coli” value was “soluble”.
In the case of “MGSDKIHHHHHHMNIPIKTLHYFLTLVETGNFTRAAEKSFITQPTLSKIIQRLEENLGQQLLHRNNQKIELTQAGILLENSAREILGQWHRLQEDLTNLSGLKSGHLRLGVCPMMSSLIIDLLTAFRQQYPGIELQMYEYGGFGCEQALLNNSLDIAFTALPTTHDIELANRALTRYPLLACLPKDHALAQQEAVTWQDFEAYPFILYNEDFSLAKLITRLSHKAGVQLNIAFRSGQWDFLATMVEAQMGVAILPEPICHKLQGSELVFKPIRPNLTWDLALIWRKDLPLTPAAQALLDLSEQAHLHP”, the “soluble on expression in E. coli” value is reported as “not soluble”.
In the case of “MFTHLDENQQPRMVDISQKVAGDRRAVAQCIVQLPKAIKDYLTGQEIFLKKGPVIQTAIIAGTMAVKKTADLIPFCHTLPIHGCKFDINIVYQKRDYLEIFLQCAVNTNYKTGVEMEALCGVSVAALTIYDMCKSISSEIIIKNTKLIEKTGGKADVSQTPLYGLVLTGGKSRRMGKDKALINYQGQPHGQYIYDLLAKYCEQVFLSARPSQWQGTPLENLPTLVDRGESVGPMSGILTALQSYPGVNWLIIACDLAYINSTMVEKLIAQARQDLVATCYENADQGFPEALCGFYTPLALQLFTKAQNIGLHCPVKILQMADCQLIKPDNLFDIANINSPEDYGQINLEHHHHHH”, the “soluble on expression in E. coli” value is reported as “not soluble”.
For “MSLEPYRPICQNRPICGKIPRLNLTEGDTVLDREGYRPNVGIILINERNEVFWGKRVREHSWQFPQGGIKPGESPETAMYRELYEEVGLLPQHVKIVGRTRDWLRYDVPNNWVRREWRGSYRGQKQIWYLLRLTGRDCDVNLRATRHPEFDGWRWHQYWAPVDEVIDFKRDVYLEALKELSSRFLRGMESYEDFAARQPSGNREGHHHHHH”, the “soluble on expression in E. coli” value was “soluble”.
For “MVITLPKLKYALNALSPHISEETLNFHYNKHHAGYVNKLNTLIKDTPFAEKSLLDIVKESSGAIFNNAAQIWNHTFYWDSMGPDCGGEPHGEIKEKIQEDFGSFNNFKEQFSNILCGHFGSGWGWLALNNNNKLVILQTHDAGNPIKDNTGIPILTCDIWEHAYYIDYRNDRASYVKAWWNLVNWNFANENLKKAMQKLEHHHHHH”, the “soluble on expression in E. coli” value was “soluble”.
For “MGSDKIHHHHHHMAHVNTNGIQIEYEVFGKRTNPTIVLIAGNGAQLNFWESDFCEMLAQHNLQVIRFDNRDAGLSTKFDAAGIPDMSKIYQAAQEGKPIKTAYTLEDMADDVAGLLDALEIKKAHICGASMGGMIAQVFAYRHPLRICSLISIMSSTGNPNNPKISQETLEIVTATPPNQRGAYIEYTVHMWKKLWSKGFPFEEERAIRYTEESYDRCYYPQGAVRQNAALVANGDRRKYLSLLRVPTLVIHGTADPLIPVEAGKDTARTIPNAKLLLIEGMGHDMPKGTWKCIVEAIVSLVRDTSHSCWR”, the “soluble on expression in E. coli” value was “not soluble”.
In the case of “GPLGSMADSQDPLHERTRRLLSDYIFFCAREPDTPEPPPTSVEAALLRSVTRQIQQEHQEFFSSFCESRGNRLELVKQMADKLLSKDQDFSWSQLVMLLAFAGTLMNQGPYMAVKQKRDLGNRVIVTRDCCLIVNFLYNLLMGRRHRARLEALGGWDGFCRFFKNPLPLG”, the “soluble on expression in E. coli” value is reported as “soluble”.
With “MGSDKIHHHHHHMEEIKEQNNRLFLLLSIMIMEFSNAKTESDILQGLLNLVRKVVDIKEVVLVDENKRKIWGRDIDIKRFEEFIDWSIRQSNPVFVEDELGYVGIVPVVKQDRMFGSLIVLLNHQPSMEETEIFKVLSFLSAVVLENIKLYRELEETYNYVNVILNGLPEGIFVYSNGEIKFQNEKFKEENFPDEVLRKAISLSEEAISLRTQRVGEVISGEEFFSITSIPLILGSEVQALTIVENVTESKELERLKRIDRMKTEFIANISHELRTPLTAIKAYAETIYNSLGELDLSTLKEFLEVIIDQSNHLENLLNELLDFSRLERKSLQINREKVDLCDLVESAVNAIKEFASSHNVNVLFESNVPCPVEAYIDPTRIRQVLLNLLNNGVKYSKKDAPDKYVKVILDEKDGGVLIIVEDNGIGIPDHAKDRIFEQFYRVDSSLTYEVPGTGLGLAITKEIVELHGGRIWVESEVGKGSRFFVWIPKDRAGEDNRQDN” the “soluble on expression in E. coli” value was “not soluble”.
For “MIETITQSQETAILESFLELVKSPYGNFASIGKLSHVLNDPDTLQKVVAVLSLTPQGKQAFEDRPMLGKIDLEQLHQLPNYTLGYMYADHMIRNQLTPPPVNENVNHPFMFLAAHLGETHDIWHVVTGCDTDKPGEVKLEAFYTAQLIPDRLFLALLAKNLLKTAMYEVELCEQILDGLTQGWMMGKRAKPLFGIEWNKLWETPLEELQTSLNIVPILEHHHHHH”, the “soluble on expression in E. coli” value was “soluble”.
In the case of “MSDTPQAILLMGPTASGKTGLALELARRFPVEIVSVDSALVYRDMDIGTAKPTAEEMAACPHHLIDVISPLQSYSAAQFHADANRLIADIQARGKLPLLVGGTMLYYKALLEGLSDLPQADAALRAELDADAALLGWPAMHARLAELDPATASRLNPNDSQRIHRALEVCLLSGKPMSELIAQGKEAAAGFRFLPLALVPRERGWLHARIAERFRIMLEQGFLDEVSRLRAKYPELTLNLPSMRCVGYRQAWEHQDGLYGHDEFVERGVAATRQLAKRQLTWTRSLDAIPVDAQRDGLAGLLGDAVDDFLAGRPPAESLRYAGDF”, the “soluble on expression in E. coli” value is reported as “soluble”.
For “MSDFEETIRRLQSEKGVVGIIVVDSAGRVIHSTIDSDATQSHTAFLQQLCEKTKTSIRELDSSNDLTFLRLRTKKNEIMIAPDKDHVIMVIKDLS”, the “soluble on expression in E. coli” value was “not soluble”.
With “MGSSHHHHHHSSGRENLYFQGHMTRTNLITGFLGSGKTTSILHLLAHKDPNEKWAVLVNEFGEVGIDGALLADSGALLKEIPGGCMCCVNGLPMQVGLNTLLRQGKPDRLLIEPTGLGHPKQILDLLTAPVYEPWIDLRATLCILDPRLLLDEKSASNENFRDQLAAADIIVANKSDRTTPESEQALQRWWQQNGGDRQLIHSEHGKVDGHLLDLPRRNLAELPASAAHSHQHVVKKGLAALSLPEHQRWRRSLNSGQGYQACGWIFDADTVFDTIGILEWARLAPVERVKGVLRIPEGLVRINRQGDDLHIETQNVAPPDSRIELISSSEADWNALQSALLKLRLATTA” the “soluble on expression in E. coli” value was “soluble”.
With “MFKHDCQFEDLRIIAQRVNPLDPTWNEWTLVACQKCKMLKEWQHHSEEQMHGGDLHITALPTHDYLHHIYGIVESDVDLILTHQKKARRYNRYTNAVEEHDV” the “soluble on expression in E. coli” value was “not soluble”.
In the case of “MGSDKIHHHHHHMGDNLILSFRPDLQIKEEAGKIYLQSPVRSLVCQRVSRGLRQLMKTLTTGSGSEDFLSEPVFKEDGAGEVAKFYYHLQQFIERGFISYNVMMEQEILAIYTPFSAAPLYNEKLFKQKQRYRLSRFTYSRRDGQEIILESPLANGRVVLTHWLAAAVLHLLAEACTAGEISMQFPALPKKSLQLFLELLLSAGMLEEVDDAGISAGEGDEVLQQWEFHDLLFHARSRLGPHEQPVGGTYRFWGRIAPLPAVKNPMSGERIKLYRPDMEKLREDDYPFSLVLEERKSIRDYADEPISVQQLGEFLYRSARIKELIKANPPAGLLYEASYRPYPGGGAAYELEIYLAVNECEGLPGGLYHYDPWQHELEKLTTRTSEVEGLLKYCSNAAGLKELPPVSLHITARFQRVAWKYQSLTYSVILKDVGALCQTLYLVATAMDLAPTAIGSGPAKLLCRIAGLNYLQESAVGEFILGNKRI”, the “soluble on expression in E. coli” value is reported as “not soluble”.
In the case of “MGHHHHHHSHMDDKKKKRSPKPCLAQPAQAPGTLRRVPVPTSHSGSLALGLPHLPSPKQRAKFKRVGKEKCRPVLAGGGSGSAGTPLQHSFLTEVTDVYEMEGGLLNLLNDFHSGRLQAFGKECSFEQLEHVREMQEKLARLHFSLDVCGEEEDDEEEEDGVTEGLPEEQKKTMADRNLDQLLSNLEDLSNSMYPFQGTRLCVCVPERSVSSSPALQEYSHTTNFPTSCSPVRFSHRLPKPRYRNLEFPQN”, the “soluble on expression in E. coli” value is reported as “not soluble”.
For “MGWFGFGGNPTDTPSSSAEVSAAPIDLSAGMNFSVPGFDAPAPEPSVPDHSPFPAAPVLALDQLKSAGVGVSRQMTPYVQMDPSMFASQQPQYIMPEGGVAGKGKFEFALGHIGWAVGGAFGVGCARGALGELMNPETRKMVGKPWMTRMVNATMKHGSGFAQPSGAIVFMYSALEIGLRSVRAEDELNGFGAGALTGAIYRSPHGLKASGVGALVGLGIAAAWTLSSTDSRQRLSEMFSNH”, the “soluble on expression in E. coli” value was “soluble”.
For “MAHHHHHHMWGFEAYAEGLSATLNIHGAPLTGVAPQAGESAPLAPPRCLWKKNRNNYLFDAQGKLLSAAEAHSPTIWRTHHAFSGRCALVNPTAPATGGAAAQSFGAPGWAEQAWTAYQSWSVGFRLSSTTTDEPHILLSVAPAYFPNLVSATGEIRKADAATLASLPCAPSAEEEVIYNKRMLETPLIWEEPYALSVECTTHGVFLWSDHWGIFGRKIADRCLEVRQGEVRQSGIATLPSPGPSPSSAAADEELALVAYDAALRLRWSAAGPGSRSSTDGGSARAVAPTLSVELKTGGDAAAGGAAPTCEEKVGEELWQHLVDLPLSLDEVACKAAFRPYVTLMEGGDAVELL”, the “soluble on expression in E. coli” value was “not soluble”.
In the case of “MSSIASNTFTKTVESVPVDIKYDSDKYFISGYSYDAEVYLTATTQLALTTETTSDTRHFKLVADLSNFGPGTSHVPIQVKNLPDGMSAQVSPSTLTATIGKKASKTFDVVANITPDKLANGYEVKKVSLDETKVEVTSSEDIINQIDHVQAVLEGDDNLSDDYDGNLVLQAVSSNGTILASSISPAKVHAKISLRKLSKSVPVKLELTGDKASNVSSISYSFDRGHVTIVGSQEAMDKIDSITVPVDISQVTEDTSKTLELKAEGVTVQPSTVKVNLKVTQKLEHHHHHH”, the “soluble on expression in E. coli” value is reported as “soluble”.
With “GAMSSPAGSPTEQAPPAKGSVKVLRTVATGLNSPWGLAPLPGGDLLVSSRDEATITRVDAKTGRKTELGEVPGVSPSGEGGLLGIALSPDYASDHMVYAYFTSASDNRIVRMLYDEKKPSGEQLGAPDTVFRGIPKGVIHNGGRIAFGPDKMLYAGTGESGDTGLSQDRKSLGGKILRMTPDGEPAPGNPFPGSPVYSYGHRNVQGLAWDDKQRLFASEFGQDTWDELNAIKPGDNYGWPEAEGKGGGSGFHDPVAQWSTDEASPSGIAYAEGSVWMAGLRGERLWRIPLKGTAAAADPQAFLEGEYGRLRTVAPAGGDKLWLVTSNTDGRGDAKGGDDRILELEVE” the “soluble on expression in E. coli” value was “soluble”.
